What was measured:
[1] = type: in vivo, mouse; conditions: for change in kurtosis over time after injection: mouse ear, LS224 over 6 h, LS296 within 3 h
BSA [2] = target: T1, BSA (Bos taurus, UniProt P02769)
BSA [3] = target: T1, BSA; test: Binding to BSA by fluorescence quenching of albumin tryptophan; conditions: double logarithmic plot (Eq. 6), less than 1 mol/mol dye to albumin

T1 sequence (P02769 25-607): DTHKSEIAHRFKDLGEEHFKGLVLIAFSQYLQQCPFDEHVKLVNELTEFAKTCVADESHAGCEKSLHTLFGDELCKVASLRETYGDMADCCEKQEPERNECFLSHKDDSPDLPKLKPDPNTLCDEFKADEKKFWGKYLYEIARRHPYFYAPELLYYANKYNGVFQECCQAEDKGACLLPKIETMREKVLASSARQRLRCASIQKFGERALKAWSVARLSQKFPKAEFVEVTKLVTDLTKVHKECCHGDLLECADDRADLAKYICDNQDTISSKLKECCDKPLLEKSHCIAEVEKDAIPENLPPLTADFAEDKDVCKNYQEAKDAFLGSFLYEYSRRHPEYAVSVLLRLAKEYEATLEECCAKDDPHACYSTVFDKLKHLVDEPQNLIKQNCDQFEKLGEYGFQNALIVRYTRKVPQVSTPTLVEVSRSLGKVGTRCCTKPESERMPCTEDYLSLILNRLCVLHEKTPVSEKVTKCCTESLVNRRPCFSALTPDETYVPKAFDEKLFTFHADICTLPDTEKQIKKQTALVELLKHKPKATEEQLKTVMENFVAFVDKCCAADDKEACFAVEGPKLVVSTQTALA

| Molecule | change in kurtosis over time after injection ([1]; ex/em 780/800 nm) | K, M^−1 (binding constants to BSA in PBS buffer) (BSA [2]) | also measured |
| --- | --- | --- | --- |
| LS276-DPhe-Cyclo(Cys-Tyr-DTrp-Lys-Thr- Cys)-Thr-OH (disulfide) [LS296] | dramatic changes | 14,880 M^−1 |  |
| Cypate-DPhe-Cyclo(Cys-Tyr-DTrp-Lys-Thr-Cys)-Thr-OH (disulfide) [LS224] | no changes in kurtosis | 51,000 M^−1 |  |
| Cypate-Gly-Arg-Asp-Ser-Pro-Lys-OH [LS39] |  | 76,000 M^−1 |  |
| CC1(C)C(/C=C/C=C/C=C/C=C2\N(CCCCS(=O)(=O)O)c3ccc4ccccc4c3C2(C)C)=[N+](CCCCS(=O)(=O)[O-])c2ccc3ccccc3c21 [ICG, indocyanine green] |  |  | number of binding sites n on albumin (BSA [3]): 1.012 ± 0.0212 |
| CC1(C)C(=CC=C2CCCC(C=CC3=[N+](CCCCCC(=O)[O-])c4ccc(S(=O)(=O)[O-])cc4C3(C)C)=C2Oc2ccc(S(=O)(=O)[O-])cc2)N(CCCCS(=O)(=O)[O-])c2ccc(S(=O)(=O)[O-])cc21.[Na+].[Na+].[Na+].[Na+] [IRdye800CW, reference compound] |  |  | initial kurtosis value at the first time point ([1]; mouse ear ROI, 2 min after injection): less than 1; time of peak fluorescence intensity in ROI after injection ([1]; mouse ear ROI, intravenous injection, ex/em 780/800 nm): 20 to 30 min; binding constant K to BSA (BSA [2]): ~6,100 M^−1 |
